Results taken from paper PMC11681868.
Where no end group is shown, it is not given here. [ ]: non-standard residue; d: D form. pS = N[C@@H](COP(=O)(O)O)C(=O)O

Columns and labels:
Test in all cases: ITC; iTC200; 5 μM scFv in the cell, 50 μM peptide in the syringe; samples dialyzed against PBS; triplicate
[1] = target: rabbit antibody A4 scFv H-T56A (rabbit)
[2] = target: rabbit antibody C7 scFv (wild type) (rabbit)
[3] = target: rabbit antibody A4 scFv H-S54A (rabbit)
[4] = target: rabbit antibody A4 scFv (wild type) (rabbit)
[5] = target: rabbit antibody C7 scFv H-S54A (rabbit)
[6] = target: rabbit antibody A4 scFv H-S53A (rabbit)
[7] = target: rabbit antibody C7 scFv H-S52A (rabbit)
rabbit antibody C7 scFv H-S52A (rabbit), sequence (heavy, as listed by the source, chain 1 of 2): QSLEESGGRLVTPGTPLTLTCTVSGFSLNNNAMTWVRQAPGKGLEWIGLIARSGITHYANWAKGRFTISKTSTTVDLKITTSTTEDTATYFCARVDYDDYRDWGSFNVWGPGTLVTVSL
rabbit antibody C7 scFv H-S52A (rabbit), sequence (light, as listed by the source, chain 2 of 2): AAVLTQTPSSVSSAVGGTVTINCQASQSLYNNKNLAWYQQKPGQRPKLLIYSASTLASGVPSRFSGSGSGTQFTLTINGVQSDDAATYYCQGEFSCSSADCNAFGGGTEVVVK

rabbit antibody A4 scFv H-S54A (rabbit), sequence (heavy, as listed by the source, chain 1 of 2): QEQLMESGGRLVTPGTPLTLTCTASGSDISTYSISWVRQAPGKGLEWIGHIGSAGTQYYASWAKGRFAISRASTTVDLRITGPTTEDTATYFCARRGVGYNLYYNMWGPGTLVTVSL
rabbit antibody A4 scFv H-S54A (rabbit), sequence (light, as listed by the source, chain 2 of 2): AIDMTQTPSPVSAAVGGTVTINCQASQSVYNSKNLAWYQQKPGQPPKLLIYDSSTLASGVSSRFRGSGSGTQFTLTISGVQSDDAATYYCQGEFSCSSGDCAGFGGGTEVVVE
rabbit antibody C7 scFv (wild type) (rabbit), sequence (heavy, as listed by the source, chain 1 of 2): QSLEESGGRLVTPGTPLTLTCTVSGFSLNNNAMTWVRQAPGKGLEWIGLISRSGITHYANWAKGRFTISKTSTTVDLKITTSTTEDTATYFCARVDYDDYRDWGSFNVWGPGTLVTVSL
rabbit antibody A4 scFv H-S53A (rabbit), sequence (heavy, as listed by the source, chain 1 of 2): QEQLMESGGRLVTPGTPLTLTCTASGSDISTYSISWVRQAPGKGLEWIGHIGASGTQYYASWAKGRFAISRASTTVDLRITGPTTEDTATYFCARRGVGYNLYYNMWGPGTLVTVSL
rabbit antibody A4 scFv H-T56A (rabbit), sequence (heavy, as listed by the source, chain 1 of 2): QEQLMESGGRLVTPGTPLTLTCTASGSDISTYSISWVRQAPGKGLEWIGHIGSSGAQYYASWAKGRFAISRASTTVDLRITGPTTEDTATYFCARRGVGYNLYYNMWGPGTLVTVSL
rabbit antibody A4 scFv (wild type) (rabbit), sequence (heavy, as listed by the source, chain 1 of 2): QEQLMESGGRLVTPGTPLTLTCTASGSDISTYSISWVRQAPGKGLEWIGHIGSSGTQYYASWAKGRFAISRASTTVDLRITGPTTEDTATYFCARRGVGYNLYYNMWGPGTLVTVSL
rabbit antibody C7 scFv H-S54A (rabbit), sequence (heavy, as listed by the source, chain 1 of 2): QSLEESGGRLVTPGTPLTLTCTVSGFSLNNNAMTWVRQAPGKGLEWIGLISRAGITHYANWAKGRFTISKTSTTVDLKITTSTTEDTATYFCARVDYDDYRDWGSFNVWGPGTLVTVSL

RPHFPQF[pS]YSAS [phosphorylated Akt peptide]
Kd [1]: 4 nM
dH [1]: -23 kcal/mol
Kd [2]: 26.9 nM
dH [2]: -14.4 kcal/mol
Kd [3]: 6.95 nM
dH [3]: -23.5 kcal/mol
Kd [4]: 3.34 nM
dH [4]: -24.4 kcal/mol
Kd [5]: 95.3 nM
dH [5]: -13.3 kcal/mol
Kd [6]: 3.55 nM
dH [6]: -24.9 kcal/mol
Kd [7]: 664 nM
dH [7]: -11.1 kcal/mol
